From the RNAGym collection of RNA variant scans (doi:10.1073/pnas.2313332121)
Variants at the floor of the assay were thinned out.

B1: TPR 5TU (parent)
chain: GGAUCUUCUCGAUCUAACAAAAAAGACAAAUCUGCCACAAAGCUUGAGAGCAUCUUCGGAUGCAGAGGCGGCAGCCUUCGGUGGCGCGAUAGCGCCAACGUUCUCAACUAUGACACGCAAAACGCGUGCUCCGUUGAAUGGAGUUUAUCAUG

Variants of: B1
Assay: polymerase ribozyme fitness, log enrichment relative to wild type (log ratio); higher = more active; in vitro selection for triplet polymerase activity
Method in brief: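 Fitness is a logarithmic measure of how a genotype enriched relative to the wild type, with replicate averages weighted by inverse variance. The logarithm uses base 2, and enrichment came from Illumina sequencing of input and output libraries. Those libraries were PCR-built, transcribed mutants of each subunit of a heterodimeric triplet polymerase ribozyme, passed through one triplicate in vitro selection round that included frozen incubation at −7 °C, gel excision of extended constructs and streptavidin-bead capture. Genotypes were kept only if they had ≥10 input reads and ≥1 read per output.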

Variant	polymerase ribozyme fitness (log ratio)
U53G C75G C76U C96A A115C	≤ -4.2
U55A U101G A107G A138C G141A	≤ -4.2
U53G G83U G86A U104C	≤ -4.2
C54G C85A G92C G133U U146G	≤ -4.2
C54U A66G C72U G81C C96A A107G G133U U145A	≤ -4.2
C54A G59A C87U	-1.95
C54G C93A	-4.19
C54A U56A C85G U101C U134A U148C	≤ -4.2
U53G U61A A97G A113U	-4.18
C54U U151C	-3.65
U55A C57G A89U G136C	-3.69
C54U C96A A97G	-1.12
U55G C69A A97U A119U G141A	-1.39
U53G A137G	-2.32
C54U G92U A147U	0.0812
C54A C85U C105U A142C	-2.12
C54U C95A	-1.44
C54A C96U	-1.43
C54A C85U C149G G152U	-4.15
U53C A150G	-1.01
U55A C85A C125A	-1.75

Variant	polymerase ribozyme fitness (log ratio)
C54G C95A C118G	-2.03
C54G C99G G136U	-3.14
U53C C54U C96A A120U	-0.901
C54U A115U	-2.4
C54A C95U A106C	-2.19
U55A C149U	-1.55
U55G A98G	-0.84
C54U U56A G133C	-1.7
U55G A89U C132G	-3.98
C54G C75G C87A	≤ -4.2
U55A U56G G80A	-1.37
U55A U56A C69U C79U G86A A91U A106C A121G C125U A142C	≤ -4.2
U55C G74C G124A	-4.12
U53G G141C	-2.53
U55G G59C G86A C103U U146C	-2.47
U55G G59A	-2.25
U55A C96G	-1.04
U55A C96A	-1.21
U55A C95U C105A C108G	≤ -4.2
C54U U55A G86A C116G	-2.2
U55A A137G G141A	-1.96

Variant	polymerase ribozyme fitness (log ratio)
U55A G81A	-1.9
U55G G80A C87U	-0.574
U55G G62A	-2.48
U55A C87A C108G	≤ -4.2
U55C U127A U139G	-3.31
U55A C95U	-0.137
U55A A89C A119C	-0.892
U55A C76G G100C U109A A120G	≤ -4.2
U53G C79A C87A U102G	≤ -4.2
U55A C79U C85U	-3.3
C54A U55A U77G A121C A137U	≤ -4.2
C54A G70A	-3.79
C54U G83U	-0.319
C54U G83A	-0.655
U53G C93U	-1.92
C54U C75G	-3.81
C54A C105G U130C	-2.7
C54G C75A	≤ -4.2
C54G C75U	-1.86
U53G A64U C69U C76U A98U C108A	≤ -4.2
C54A C95U	-2.22

Variant	polymerase ribozyme fitness (log ratio)
C54G G94A	-1.68
C54A U56A C93A A98U A138C U151G	≤ -4.2
C54U G68U U82A G94A A97C G117A A138C G141A	≤ -4.2
C54A C57U C95U	-1.9
C54A A64C C85A G92U A121U C125G U134G U139G	≤ -4.2
U55A C87G U101G G143A	≤ -4.2
C54G G84A	-1.74
U55G A60G G133U G136C	≤ -4.2
C54U A66U C85U	≤ -4.2
U55A C96U U127C U134C	-3.3
C54A G94C G141A	-3.13
U55A G100C G126U G128C	≤ -4.2
U55A G92A C125A	-3.46
U55A A121C	-0.369
U55G C87U G92A U101G G143U	-3.33
C54G G83A C96U A110G C132U A142C	≤ -4.2
C54A G70A C95U A120G	-3.62
C54G G68U C87A U104G	≤ -4.2
U55G C87A C93A C99U U134A	≤ -4.2
C54U U61A A106G G152C	≤ -4.2
U53C A97U C114G U145A	-3.74
